Target: Tie2 receptor on HUVEC (human, UniProt Q02763 23-1124)
Experiment: cell-based or functional assay

Tie2 receptor on HUVEC, sequence (Q02763 23-1124): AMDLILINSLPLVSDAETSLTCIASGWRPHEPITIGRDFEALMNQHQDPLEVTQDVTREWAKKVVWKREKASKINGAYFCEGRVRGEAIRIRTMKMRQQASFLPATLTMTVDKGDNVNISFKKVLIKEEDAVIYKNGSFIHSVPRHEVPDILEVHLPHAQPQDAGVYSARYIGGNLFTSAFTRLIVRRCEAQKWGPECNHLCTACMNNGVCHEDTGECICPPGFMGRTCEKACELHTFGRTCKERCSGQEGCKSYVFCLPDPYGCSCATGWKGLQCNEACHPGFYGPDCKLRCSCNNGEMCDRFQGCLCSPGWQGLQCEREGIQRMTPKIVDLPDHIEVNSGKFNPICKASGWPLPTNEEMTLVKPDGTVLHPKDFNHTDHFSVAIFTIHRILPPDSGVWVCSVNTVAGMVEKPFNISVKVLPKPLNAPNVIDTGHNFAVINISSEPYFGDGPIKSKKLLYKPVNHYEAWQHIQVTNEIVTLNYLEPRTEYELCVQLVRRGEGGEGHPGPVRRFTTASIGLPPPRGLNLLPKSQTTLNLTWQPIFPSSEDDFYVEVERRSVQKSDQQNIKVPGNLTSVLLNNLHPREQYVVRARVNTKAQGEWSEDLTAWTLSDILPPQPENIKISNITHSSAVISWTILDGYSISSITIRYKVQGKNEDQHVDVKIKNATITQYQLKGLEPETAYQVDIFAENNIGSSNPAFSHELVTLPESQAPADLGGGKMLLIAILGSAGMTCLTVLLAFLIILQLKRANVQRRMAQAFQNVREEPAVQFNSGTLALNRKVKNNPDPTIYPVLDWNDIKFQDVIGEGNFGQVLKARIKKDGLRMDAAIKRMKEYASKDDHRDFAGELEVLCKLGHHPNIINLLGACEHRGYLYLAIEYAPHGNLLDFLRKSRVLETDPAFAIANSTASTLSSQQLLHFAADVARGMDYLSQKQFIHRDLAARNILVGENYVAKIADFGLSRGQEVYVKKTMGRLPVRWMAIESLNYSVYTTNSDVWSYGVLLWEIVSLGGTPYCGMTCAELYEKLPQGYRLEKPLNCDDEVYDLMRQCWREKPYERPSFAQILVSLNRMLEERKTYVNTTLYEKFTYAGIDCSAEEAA

phospho-AKT (pAKT) EC50 in HUVEC treated for 20 minutes: 87 ng/mL
B1: ANG1-C4BP (ligand)
chain: KPFRDCADVYQAGFNKSGIYTIYINNMPEPKKVFCNMDVNGGGWTVIQHREDGSLDFQRGWKEYKMGFGNPSGEYWLGNEFIFAITSQRQYMLRIELMDWEGNRAYSQYDRFHIGNEKQNYRLYLKGHTGTAGKQSSLILHGADFSTKDADNDNCMCKCALMLTGGWWFDACGPSNLNGMFYTAGQNHGKLNGIKWHYFKGPSYSLRSTTMMIRPLDFGGGGSETPEGCEQVLTGKRLMQCLPNPEDVKMALEVYKLSLEIEQLELQRDSARQSTLDKELHHHHHH

From US20230103583A1 (NORTHWESTERN UNIVERSITY, published 2023)
